Measured values taken from paper PMC2175261 (The Journal of Cell Biology, 2000).
Like-named read-outs stand apart in the source and are kept apart here.

B1: C2B domain of synaptotagmin Ib (residues 248–421) (domain or fragment, rat, UniProt P21707 248-421, looked up)
chain: NTVDFGHVTEEWRDLQSAEKEEQEKLGDICFSLRYVPTAGKLTVVILEAKNLKKMDVGGLSDPYVKIHLMQNGKRLKKKKTTIKKNTLNPYYNESFSFEVPFEQIQKVQVVVTVLDYDKIGKNDAIGKVFVGYNSTGAELRHWSDMLANPRRPIAQWHTLQVEEEVDAMLAVKK
B2: cytoplasmic domain of synaptotagmin Ib, D230,232N mutant (domain or fragment, rat, UniProt P21707 96-421, looked up)
chain: GGKNAINMKDVKDLGKTMKDQALKDDDAETGLTDGEEKEEPKEEEKLGKLQYSLDYDFQNNQLLVGIIQAAELPALDMGGTSDPYVKVFLLPDKKKKFETKVHRKTLNPVFNEQFTFKVPYSELGGKTLVMAVYNFNRFSKHDIIGEFKVPMNTVDFGHVTEEWRDLQSAEKEEQEKLGDICFSLRYVPTAGKLTVVILEAKNLKKMDVGGLSDPYVKIHLMQNGKRLKKKKTTIKKNTLNPYYNESFSFEVPFEQIQKVQVVVTVLDYDKIGKNDAIGKVFVGYNSTGAELRHWSDMLANPRRPIAQWHTLQVEEEVDAMLAVKK

Key:
[1] = target: the molecule itself; experiment: pull-down
[2] = target: the molecule itself; experiment: pull-down; remark: listed apart in the source

Protein	binding result [1]	binding result [2]
B1	binds	
B2		binds
